Measured values as given in the domain aggregation screens of Martell et al. (2025).

Experiment: soluble fraction after stress (log2 fold change); higher = more stays soluble; pooled small domains, quantitative proteomics
Conditions: stress: 75 degC
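Further: 20 min heating vs room temperature control held 20 min.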

HMIDHLPPQRAAVLAFLQRELVAGRSPSLAEIALAFGFASRNAAQKHVQALVADGLLEQATGRSRGLRLPG
soluble fraction (log2): -2.17

HMIDIGSKIKKLRSKKSIEIGKKYTGAMLANELGISRSYLGDIESGRTVPNEIILGKIADIFDVDIYELIG
soluble fraction (log2): -1.06

HMIDLPEAFIQQLKEAVDVGDVTGLRELLGQLRRRYPQQSALSDEAERLLREFDFERLAQLFEGLD
soluble fraction (log2): -1.67

HMIDNFFTIRFNYSKINEVIRLLKEFNGEIFNKNYDKNEYIIEFSIPKKDAALLISKLKNITGLTIEQ
soluble fraction (log2): -1

HMIDQIAEQLQQRLAVDTAFATIQRDYPDVIANKDIELLTAIKVNQKIAEGASRASAMLESAKEVYETL
soluble fraction (log2): 0.196

HMIDRPLTLVEDYERFAGELAKITLRFMLDGRKRFNGRLAGFDEDGKIVLETSFGRFAFSFDEIDSARI
soluble fraction (log2): -3.08

HMIDSVFASYRQVALDDELWDKVRNGAVLPKVELFEVMDGPVLFTYQSKIVAMYEPHPTKAGYIKPRKMFL
soluble fraction (log2): -2.09

HMIDTTKILPGQEFKNMQELSVALTGQKMPAGKGYVLQQEKFKLYFSWKKITGTHKLIIDEIYEEPKT
soluble fraction (log2): -3.23

HMIDYIKYTVDGKTYELINNWDGTWSRELEAPLVAGRYDLLLEISQNGLVTYIDSSDPRYEFYLDVI
soluble fraction (log2): -3.02

HMIEESTVPDLKGKSQEDAIKLLEDANLKYQIVEEESKKIEAGYVISQETDANKKVNAGDTVIIHVST
soluble fraction (log2): 0.645

HMIEFYTMQDMFYFKLTGDNTSRERREALGKILGIGYGNATQMVSRLNNYGISKEEFSKAIEEIEKQLEA
soluble fraction (log2): -2.89

HMIEIKNLSFSYGKKKQSVFNDFSLTLDKGSVYGLLGKNGTGKSTLLYLMTGLLRPQAGQVLYKGVDVS
soluble fraction (log2): 0.141

HMIEKVNDYVVRFANVNGTGSASANNLFALAIYRMGVPVTPKNIFPSNIQGLPTWFEVRVSGSGYLARRG
soluble fraction (log2): 0.162

HMIELDRTNLLGVFGPKSRPYALLMLSNGEMIKISIGDQFFGWRVYGIDEKSIQVQNGTKQEILRIP
soluble fraction (log2): -3.91

HMIENGILELKGKTGVAQTVLRPSGKVLIDDEIYDAVALTGYIEKADKVLVTKVEATQLYVEK
soluble fraction (log2): -0.0378

HMIERLVVSPAAGVFTKKMSVENNTRIDVGHVLGHVGETEVRSPFAGILQNYIAVDGERLTAHQPIAWLRS
soluble fraction (log2): -0.0936

HMIERVLRTEEHIEAFAGEEVEAKLFAPIDGKKTLRGILGGIEDGRVILTVGDTEYRIEHAKISRLTTVFD
soluble fraction (log2): -0.881

HMIESVMVGIKELLGDTIDQKYEKYIRLGGIPSDEVDEFNSVFSAYEKVNGNHNGKKKYDYVMNNLPIIPV
soluble fraction (log2): -0.574

HMIETIQVPRAFNDWHEQADKTKSVFEVYAEIEASENEKLIAWVRNNQNEFAKIWLGALIPELE
soluble fraction (log2): -1.7

HMIGHIGSAVMLNAKLRPRLPLLHVLALTQSLGERLSAAEAQPEVYRWSDPGQSRVIAEFEGGRLTRWRLE
soluble fraction (log2): -2.05

HMIGVIVDEVDPDSSLKSGDIITEVNREVILNIDDFVGLVEQIQKTGRSSLLLKILRDKKSLWVTIQFV
soluble fraction (log2): 0.267

HMIHQIPVNVQKIRQIIGINLNENDYLNYLAKLGFVIDEGLIIVPSFRSDVKTQNDLAEEIARV
soluble fraction (log2): -0.547

HMIINFDAIKLTTELNKYKRHKAIPNTFFDGTYTILDVRELYNDLTPKAQKIADELIEHYNVDVK
soluble fraction (log2): -1.73

HMIINLGELLKMLEVNKYQDAMDALDSLIEEGGSLEKIESLHEIRQHTHAMNFREAERLLSILIESEGA
soluble fraction (log2): -1.73

HMIISPKKLEYRQRIINALGDRKMSLNELSKAMGYKGITTKLSFTVDDMIKSGVIEKVMVGAYAKLHIP
soluble fraction (log2): -2.33

HMIIVMKRNATETQIDHVVRWVESIGYRAHRSNGTEQTVVKAVGGERGGEELKYLAALSGVEKVVPIR
soluble fraction (log2): -1.49

HMIKDSKAAYKILGVDENATNEEIKKAYRQLVINHHPDKVSHLGEDIQRAANEKLKQINAAYDEIKKQRGF
soluble fraction (log2): -0.0128

HMIKEGDLVFIWNPKKGDSFLIKVQPGQSQGTHFGQIKHSEIMEHNYGEGIRTPKGQVYYLLRPTLGEFTR
soluble fraction (log2): -1.4

HMIKEVGYEKFMQMTEEEDIGRVEIDQEENQITFTDKDETAIYKTGMVDDPDLTERLYDAGAEFS
soluble fraction (log2): 0.0721

HMIKIDESTLSEDELKIFEILKIEDKNIENIAIESKILPGKLLATLMNMEMKKIVVQYPGKVFGLNRKLK
soluble fraction (log2): -1.81

HMIKKAILPVAGLGTRFLPASKSIPKEMVTVVDRPAIEYVVREAVEAGIEQIILVTHSSKASIENYFDR
soluble fraction (log2): -0.192

HMIKKLDIEPIIKSVVDDFNNIYKLKRGITISYLNDGKNKYFINGIENRIEQIIANLLDNSISFSEDNKDV
soluble fraction (log2): 0.0165

HMIKLSTNENTALRLVMERGLVTESELKGLFDNPVAVMESLISKMIETNTHWIHSERSENGEWVYAWQ
soluble fraction (log2): -2.01

HMIKNDIGKFIKLYRETHQWSQRELAEHLGVSQRNVSYYEKGERIPPADVLKKLSTLFDVPVDVLLGLK
soluble fraction (log2): -1.18

HMIKRDLAFSEFIAEVKAGQVREVTIKGNSISGNLNDGREFNTYAPNDPNLVKTLTDQGVLIRAIPLE
soluble fraction (log2): 0.0691

HMILNPQELGERIRKLRLKRNKTQSYFADMLYISSSYLALIESGKRVPNLDLLIHIAKFTDVTLDYLVFG
soluble fraction (log2): -1.24

HMILVLKPGAPEDLKNELIHDIEKMGLRVHVSVGEGTTIIGLIGDTSKISKYTFSSYEIVSNVLRVT
soluble fraction (log2): -0.188

HMILYDDEYKGPRYRYGLHSRPLSPGAVPKGFIIHSDRPHPDFRHGTLDYPVKLPDDRAANFELIFIGEFD
soluble fraction (log2): -1.59

HMIMMTLGEKIRSIRKAKGMTQQELAEKLNTTKQTIGKYEKGIVTNLPLFRINELARALSTTPAYLTGW
soluble fraction (log2): -1.46

HMIMPSDATEAKLLGVLGNEPLHVDEIRNQAELPIEKVSAALALMELKGMVRQVGGMNYVAVR
soluble fraction (log2): -0.0915

HMIMQTTSDRINQRMRDLGLQHKDLVAATGASKGTVTNWINGVNNPTGKRLVQLAQALKTTSSWLLTGN
soluble fraction (log2): -0.481

HMINDPSALGQRAFVDELLWMAGYVPEKIEIYQTLPNNSRVYRVKLDSVNGGFIFIRWDKKKKEHYV
soluble fraction (log2): 0.106

HMINEEELLKIENIKRKYPDSKAALMPVLYFFQEKYGFISDDSIKEISQLLNISEVDIKGVVSFYEMFHEK
soluble fraction (log2): -1.32

HMINEVVSLRDVPSFIGKAKRDVIRIAEENNLKIKINGNGYVKEQTPNPGNKYKSNQEIKVFLEPG
soluble fraction (log2): -0.0743

HMINFSKNIISDTTSIKEAIEILNIISGRDNHILFVLNDKRQLIGTLSDGDVRRGMLASKTISQSVTEVM
soluble fraction (log2): -0.402

HMINIDESIDESLSEDDAVLDLLERASASFTKAQEALLEGDLGRYQTLIEQADRLVAKALELLDEKN
soluble fraction (log2): -0.808

HMINIQYSYNDGKETLHNLSPEVIAEKIMDDPNGYHIVWKQGMVGWVNANDIDDIAKLLRQKK
soluble fraction (log2): -0.311

HMINKDNLIEEILKFINTKIADISSNNPLFDIVAKPYISKVVTNNVSKLDKALSLIADDKGMVDADGLLT
soluble fraction (log2): -0.129

HMINLDGIGEKISRLRKEQGVTIRELSEYTGYSVGFLSNLETGKNSPTVESLQRVAEALRTDIIEILTK
soluble fraction (log2): -1.2

HMINLNEVLANFQKSYPNLAGFKYDQGMDALVYEGNYIRLNGYMLSRINPTLFSMSPDDIFTYLKNGF
soluble fraction (log2): -3.17

HMINRMGRLVEALSHMIANTKPGARLPSEPELARQLGVSRATLREAMRTFEAQGMIHRRQGAGTFVVH
soluble fraction (log2): -1.27

HMINYSQKQLIAIQDELSKRFQALENESTKNNVTGFGVGLHYIDIDLIVNTPEKQKEFREKIMDSPAFRFN
soluble fraction (log2): -0.893

HMINYYELLKLDMNAAHEEINDAIKLESEKNTIPEDQIRTMKSIFFNTEFKKEYDQRLMNFLLT
soluble fraction (log2): -0.671

HMIPDAIDPDGRFKWRAGEAVVGFGRHAGEPLKKIAIENPEFLRWILKADFSTDVKKIASDALKGYFPEK
soluble fraction (log2): -0.488

HMIPDLPAVGVNVHKERRRQQLSLDALAAGSGVSKAMLSQIESGKVNPTVATMWKIAHALGVDFELLLKGE
soluble fraction (log2): -0.982

HMIPDPPALGSNLHRERRRQQLSLDALAAASGVSKAMLSQIEADKVNPTIATMWKIAHALNIDFETLLRGE
soluble fraction (log2): -0.963

HMIPENKRVLISLTYIYGIGKKISQDILEKANIDSSIKTSQLTDDDVARIRQLIENDYLVEGELRV
soluble fraction (log2): 0.0291

HMIPLPEDVASMRERLALTPEKADELFGLEDGSFARYEHGEEKVPFVVFQLLWLLGKYPHLIGELR
soluble fraction (log2): -1.2

HMIPRGFSRYYILELLQKKPHTGKEIIDNAIKESGGRWNPSPGLIYPLLGRLLDENLIEETNDGKYK
soluble fraction (log2): -2.24

HMIPSLTITVNEHSRQITRGTSLYTLRDALYPDADVLVVNGHPADSDRHLEEGDAVVLIRRGA
soluble fraction (log2): -0.456

HMIQIQDIAFSEFLQELDKGNIVEVNIKGDLINGDLINGKKFKTVAPYDPNLVEKLSKQNVRINVEPIN
soluble fraction (log2): 0.157

HMIQLKEHDVVRLRETIVENDEKIPAGTRGVVLSVYDGGRAFAVEVADDRAASAIITAFRDQLEVY
soluble fraction (log2): -0.467

HMIQNTGMMESGDSIRGMALDAGFPLLMVVGYRGWTRKGNTPDSAAVYTEPFLNAFRLNYYLVEHDE
soluble fraction (log2): 0.3

HMIQVNKTQALIIEEMRDNPNITLLELQKTLSLGRTAIQNNVSSLRKRQIIKRVGSNKNGYWEVTDK
soluble fraction (log2): -1.89

HMIRQETYLLVRKAVGALPVQMRKIIELAMQGKKNAEIAAQLSISEGTVHTLKKTAYKKLRDRLQE
soluble fraction (log2): -3.12

HMIRQGTKQALLIEMLQRPEGASITEIVEATSWQAHTARGAISGALKKKLGLPITSEKHPERGTVYKL
soluble fraction (log2): -0.862

HMISAQEQALRNLKLSNGMTWKALAKALGITERSILSYVAAPGTKGYREMPAEVWHKLENISGH
soluble fraction (log2): -0.0432

HMISDAEWTIMKALWQSEDKKMTLKEIAEAVADSGWSYTTVRTMVGRLVEKEAIEADESHPRNFRYSAA
soluble fraction (log2): -1.2

HMISEGDIIKGTVIDVNEEEVILDLKYYAQGVIKAENLSNDPDFLAAGKISVGDEIEATVIKMDDGEGNIE
soluble fraction (log2): 0.529

HMISESIPAKDALLRLLNTAYQTRTNAAGEFYFNDVPPGKYILQASVNDVEIIRENISINEN
soluble fraction (log2): -0.377

HMISEWDAAYSYAKQYYEENGHLFVPKKYVTSEGAALGKWIWEQRDSYLGLSSYKISDKKIEMLEDIGMFW
soluble fraction (log2): -4.03

HMISINVIGEMISGSYGNTPFSRTYEKDIYEQMVKLSDDADQAQTVEEYNKILAEFSLLTTEDLK
soluble fraction (log2): -0.546

HMISKWGELVDLAVQLDIIQKSGSWFSMGDERIGQGANSVKDYLIANPDIAEKVEAEVRENLWKLN
soluble fraction (log2): -0.625

HMISKYLRIESDILSAIREGRLKPGDKLPGQSEMRRIYNVSAITVRKAFTDLINDGYLVGVRGSGTYVAKR
soluble fraction (log2): -0.91

HMISQATMEKMGLTNRERQLVDFIVRGASNQEISEKMFISINTVKIHVSNIFRKAGVRSRTELMDKYP
soluble fraction (log2): -3.26

HMISSKDIINDEDGARLGKIADVEIDVATGKILSVHVYRSFKLLHLFGNKDVVQIPWNKIMKIGSDVVIVE
soluble fraction (log2): 0.102
